Assay [1] deals with T1, human FGFR2 IIIb variant protein (isoform 2: NP_075259), expressed on transfected cells (human, UniProt P21802 22-821).
T1 construct: also called pcDNA-DEST40-FGFR2 IIIb
T1 chain: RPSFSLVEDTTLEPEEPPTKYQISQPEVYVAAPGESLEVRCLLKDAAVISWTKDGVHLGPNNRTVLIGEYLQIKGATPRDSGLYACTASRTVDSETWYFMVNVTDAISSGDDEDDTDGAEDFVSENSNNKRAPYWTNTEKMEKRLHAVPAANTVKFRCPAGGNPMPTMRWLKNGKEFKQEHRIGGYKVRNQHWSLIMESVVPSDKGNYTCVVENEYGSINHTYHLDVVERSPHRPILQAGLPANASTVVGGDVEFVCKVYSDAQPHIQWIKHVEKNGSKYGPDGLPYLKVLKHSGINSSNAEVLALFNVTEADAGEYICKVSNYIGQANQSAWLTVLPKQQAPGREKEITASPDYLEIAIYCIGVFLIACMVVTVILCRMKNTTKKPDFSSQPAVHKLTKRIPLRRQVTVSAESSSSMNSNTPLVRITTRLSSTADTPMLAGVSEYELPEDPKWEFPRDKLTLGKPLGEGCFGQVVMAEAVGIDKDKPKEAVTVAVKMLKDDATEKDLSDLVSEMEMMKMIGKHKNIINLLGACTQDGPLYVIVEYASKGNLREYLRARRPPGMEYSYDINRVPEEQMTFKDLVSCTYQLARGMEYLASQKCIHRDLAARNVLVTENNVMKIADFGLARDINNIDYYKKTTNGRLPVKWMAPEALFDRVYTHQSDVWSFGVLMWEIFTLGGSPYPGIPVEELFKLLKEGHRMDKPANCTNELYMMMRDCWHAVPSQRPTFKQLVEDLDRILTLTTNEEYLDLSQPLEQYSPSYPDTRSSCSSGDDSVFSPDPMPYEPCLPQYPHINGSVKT
The assay is described as follows: flow cytometry, hybridoma supernatant on transfected HEK293T cells. As to the method:
(§1) The cell suspension was centrifuged to remove the supernatant. […] The cells were washed twice with PBS containing 5% FBS, then suspended by the addition of Anti-Rat IgG FITC conjugate (manufactured by Sigma-Aldrich Corp.) diluted 320-fold with PBS containing 5% FBS, and left standing at 4° C. for 1 hour. The cells were washed 3 times with PBS containing 5% FBS and then resuspended in PBS containing 5% FBS and 2 μg/ml 7-aminoactinomycin D (manufactured by Molecular Probes, Inc.), followed by detection using a flow cytometer (FC500; manufactured by Beckman Coulter Inc.). The data was analyzed using Flowjo (manufactured by Tree Star Inc.). After removal of 7-aminoactinomycin D-positive dead cells by gating, the FITC fluorescence intensity of live cells was plotted to a histogram to calculate average fluorescence intensity (MFI).
In general terms: In flow cytometry, cells or beads pass a laser one at a time.

Assay [2] has as its target T1, human FGFR2 IIIb variant protein …. Kind of assay: Cell-ELISA on transfected 293 alpha cells, antibody 2 ug/ml. As to the method:
(§2) The resulting cells were dispensed in an amount of 100 μl/well to a 96-well plate (manufactured by Corning Inc.) and cultured overnight at 37° C. under 5% CO₂ conditions in a DMEM medium containing 10% FBS. The obtained transfected cells were used in the attached state in Cell-ELISA. […] The cells in the wells were washed once with PBS containing 5% FBS. Then, Anti-Human IgG-Peroxidase antibody produced in goat (manufactured by Sigma-Aldrich Corp.) diluted 500-fold with PBS containing 5% FBS was added thereto, and the plate was left standing at 4° C. for 1 hour. The cells in the wells were washed 5 times with PBS containing 5% FBS. Then, an OPD chromogenic solution (OPD solution (o-phenylenediamine dihydrochloride (manufactured by Wako Pure Chemicals Industries, Ltd.) and H₂O₂ dissolved at concentrations of 0.4 mg/ml and 0.6% (v/v), respectively, in 0.05 M trisodium citrate and 0.1 M disodium hydrogen phosphate dodecahydrate, pH 4.5)) was added thereto at a concentration of 100 μl/well. Color reaction was performed with occasional stirring and stopped by the addition of 1 M HCl at a concentration of 100 μl/well. Then, the absorbance was measured at 490 nm using a plate reader (ARVO; PerkinElmer, Inc.).

Assay [3] addresses T2, human FGFR2 IIIc variant protein (isoform 1: NP_000132), expressed on transfected cells (human, UniProt P21802 22-821).
T2 construct: also called pcDNA-DEST40-FGFR2 IIIc
Kind of assay: flow cytometry, hybridoma supernatant on transfected HEK293T cells. As to the method: as §1

Assay [4] concerns the target T2, human FGFR2 IIIc variant protein …. The assay is described as follows: Cell-ELISA on transfected 293 alpha cells, antibody 2 ug/ml. The protocol:
as §2
For orientation: ELISA stands for enzyme-linked immunosorbent assay.

For assay [5] the target is unchanged. The assay is described as follows: flow cytometry on transfected HEK293T cells. The protocol:
as §1

Residue numbers refer to the chain shown, from its start.

Data on six molecules can be found in patent publication US20160317656A1 (Daiichi Sankyo, published 2016).

B1: rat anti-human FGFR2 monoclonal antibody FR2-10 (antibody, V domains shown)
VH: EVQLVESGGGLVQPGRSLKLSCVASGFRFNDFWMTWIRQAPGKGLEWVASITYTGDNTYYAGSVKGRITISRDNAKSTLYLQMNSLRSEDTATYYCTRDDYGGYSPYYMDAWGQGTSVTVSS
VL: DIQMTQSPSSLSAFLGDRVTITCRASQDIGNYLRWFQQKPGKSPRLMIYGATNLANGVPSRFSGSRSGSDYSLTINNLESEDMAIYYCLKHNEYPFTFGSGTKLEIKR
notes: Used as hybridoma culture supernatant or purified from mouse ascites; also called rat FR2-10 antibody
In the case of B1, the binding result in assay [1] is on record as “binds”.

B2: human chimeric anti-FGFR2 antibody cFR2-10 (antibody, human IgG1, V domains shown)
VH: B1 VH
VL: B1 VL
notes: Rat FR2-10 variable regions on human IgG1 / kappa constant regions; also called human chimeric FR2-10
As to B2, the binding result in assay [2] was “binds”.

B3: rat anti-human FGFR2 monoclonal antibody FR2-13 (antibody, V domains shown)
VH: QVKLLQSGAELVKPGASVKLSCKTSGFTFSTSYMSWLKQVPGPSIEWIGWIYAGDGGTKYNQKFKGKATLTVDKSSSTAYMDLSSLTSEDAAVYFCATDGYGDWFAYWGQGTLVTVSS
VL: DIQMTQSPASLSASLGETVTIECRASEDIYSNLAWYQQKPGNSPQLLIYDANILADGVPSRFSGSGSGTQYSLKINSLQSEDVASYFCQQYNNYPPFTFGVGTKLELKR
notes: Used as hybridoma culture supernatant or purified from mouse ascites; also called rat FR2-13 antibody
In the case of B3, the binding result in assay [3] and in assay [1] was “binds” in each case.

B4: human chimeric anti-FGFR2 antibody cFR2-13 (antibody, human IgG1, V domains shown)
VH: B3 VH
VL: B3 VL
notes: Rat FR2-13 variable regions on human IgG1 / kappa constant regions; also called human chimeric FR2-13
Take B4: the binding result in assay [4] and in assay [2] was “binds” throughout.

B5: human chimeric anti-FGFR2 antibody cFR2-14 (antibody, human IgG1, V domains shown)
VH: B3 VH with I45T, S75F, A106T
VL: B3 VL with V101A
notes: Rat FR2-14 variable regions on human IgG1 / kappa constant regions; also called human chimeric FR2-14
For the molecule B5, the binding result in assay [4] and in assay [2] was “binds” each time.

B6: rat anti-human FGFR2 monoclonal antibody FR2-14 (antibody, V domains shown)
VH: B3 VH with I45T, S75F, A106T
VL: B3 VL with V101A
notes: Used as hybridoma culture supernatant or purified from mouse ascites; also called rat FR2-14 antibody
As to B6, the binding result in assay [1] and in assay [5] was “binds” each time.
